Consider three molecules from patent US20110262424A1 (published 2011).

The target in assay [1] is human von Willebrand factor (human) (UniProt P04275). Kind of assay: SPR, Biacore 3000, vWF amine-coupled to CM5 chip, global fit to a simple interaction model. For orientation: In SPR one partner is held on a chip, and binding of the other changes the refractive index at the surface.
In assay [2] the target is T1, human von Willebrand factor (human, UniProt P04275 764-2813, limits assumed).
T1 construct: The preparation used in the assay is not described; also called vWF
Described as above. Here is the method:
The binding of human-cl rhFVIII to human von Willebrand factor was analyzed using surface plasmon resonance with the Biacore 3000 instrument. The recombinant factor VIII products X and Y derived from murine cell lines (murine-cl rhFVIII X and Y) were used as comparators.
The von Willebrand factor was immobilized through primary amines to the carboxymethylated dextran of a CM5 sensor chip. The binding data were globally fit to a simple interaction model yielding kinetic parameters and affinities. The kinetics in binding and affinity to von Willebrand factor were analyzed. Furthermore, a quantitative measure of the capacity of Human-cl rhFVIII to bind to von Willebrand factor in comparison with other recombinant factor VIII products was obtained.

A word on the Kd: it is the equilibrium constant for the complex coming apart. Lower therefore signals higher affinity. Broadly, the koff is the rate constant with which the complex falls apart. A high value points to a short-lived complex. What is called kon is a measure of how fast the partners come together. A high value points to faster complex formation. “murine-cl rhFVIII X (recombinant factor VIII product X derived from a murine cell line) (from UniProt P00451 20-2351)”: in assay [1], the Kd was 0.32 nM, the dissociation rate constant (koff) came to 0.00105 s⁻¹ and the kon came out at 3.3e+06 M⁻¹ s⁻¹.

With “murine-cl rhFVIII Y (recombinant factor VIII product Y derived from a murine cell line) (from UniProt P00451 20-2351)”, in assay [1], the Kd was 0.34 nM, the koff came out at 0.00105 s⁻¹ and the kon was found to be 3.1e+06 M⁻¹ s⁻¹.

B1: human cell line recombinant human factor VIII (human-cl rhFVIII), a human B-domain-deleted factor VIII protein produced in the human cell line HEK293F (other, UniProt P00451 20-2351, looked up)
chain: ATRRYYLGAVELSWDYMQSDLGELPVDARFPPRVPKSFPFNTSVVYKKTLFVEFTDHLFNIAKPRPPWMGLLGPTIQAEVYDTVVITLKNMASHPVSLHAVGVSYWKASEGAEYDDQTSQREKEDDKVFPGGSHTYVWQVLKENGPMASDPLCLTYSYLSHVDLVKDLNSGLIGALLVCREGSLAKEKTQTLHKFILLFAVFDEGKSWHSETKNSLMQDRDAASARAWPKMHTVNGYVNRSLPGLIGCHRKSVYWHVIGMGTTPEVHSIFLEGHTFLVRNHRQASLEISPITFLTAQTLLMDLGQFLLFCHISSHQHDGMEAYVKVDSCPEEPQLRMKNNEEAEDYDDDLTDSEMDVVRFDDDNSPSFIQIRSVAKKHPKTWVHYIAAEEEDWDYAPLVLAPDDRSYKSQYLNNGPQRIGRKYKKVRFMAYTDETFKTREAIQHESGILGPLLYGEVGDTLLIIFKNQASRPYNIYPHGITDVRPLYSRRLPKGVKHLKDFPILPGEIFKYKWTVTVEDGPTKSDPRCLTRYYSSFVNMERDLASGLIGPLLICYKESVDQRGNQIMSDKRNVILFSVFDENRSWYLTENIQRFLPNPAGVQLEDPEFQASNIMHSINGYVFDSLQLSVCLHEVAYWYILSIGAQTDFLSVFFSGYTFKHKMVYEDTLTLFPFSGETVFMSMENPGLWILGCHNSDFRNRGMTALLKVSSCDKNTGDYYEDSYEDISAYLLSKNNAIEPRSFSQNSRHQAYRYRRGEITRTTLQSDQEEIDYDDTISVEMKKEDFDIYDEDENQSPRSFQKKTRHYFIAAVERLWDYGMSSSPHVLRNRAQSGSVPQFKKVVFQEFTDGSFTQPLYRGELNEHLGLLGPYIRAEVEDNIMVTFRNQASRPYSFYSSLISYEEDQRQGAEPRKNFVKPNETKTYFWKVQHHMAPTKDEFDCKAWAYFSDVDLEKDVHSGLIGPLLVCHTNTLNPAHGRQVTVQEFALFFTIFDETKSWYFTENMERNCRAPCNIQMEDPTFKENYRFHAINGYIMDTLPGLVMAQDQRIRWYLLSMGSNENIHSIHFSGHVFTVRKKEEYKMALYNLYPGVFETVEMLPSKAGIWRVECLIGEHLHAGMSTLFLVYSNKCQTPLGMASGHIRDFQITASGQYGQWAPKLARLHYSGSINAWSTKEPFSWIKVDLLAPMIIHGIKTQGARQKFSSLYISQFIIMYSLDGKKWQTYRGNSTGTLMVFFGNVDSSGIKHNIFNPPIIARYIRLHPTHYSIRSTLRMELMGCDLNSCSMPLGMESKAISDAQITASSYFTNMFATWSPSKARLHLQGRSNAWRPQVNNPKEWLQVDFQKTMKVTGVTTQGVKSLLTSMYVKEFLISSSQDGHQWTLFFQNGKVKVFQGNQDSFTPVVNSLDPPLLTRYLRIHPQSWVHQIALRMEVLGCEAQDLY
notes: B-domain-deleted construct made in HEK293F cells
In assay [2], B1 displayed a Kd of 0.21 nM, an off-rate constant (koff) of 0.00095 s⁻¹ and a kon of 4.5e+06 M⁻¹ s⁻¹.
